In general, Km refers to the substrate concentration at which the rate is half of its maximum.

Consider four proteins from patent publication US20020168748.

Data set [1] addresses 1,3-β-glucan synthase (GS) complex, P38631.
In data set [2] the target is T1, peptide GKKKKKKSKTKCVIM (C-terminus of K-ras4B).
T1 chain: GKKKKKKSKTKCVIM

Data set [3] concerns the target T2, peptide RVKEKKEKKKKCVVL (C-terminus of CaRho1).
T2 chain: RVKEKKEKKKKCVVL

In data set [4] the target is T3, CaRho1 (Candida Rho1-like GTPase).
T3 chain: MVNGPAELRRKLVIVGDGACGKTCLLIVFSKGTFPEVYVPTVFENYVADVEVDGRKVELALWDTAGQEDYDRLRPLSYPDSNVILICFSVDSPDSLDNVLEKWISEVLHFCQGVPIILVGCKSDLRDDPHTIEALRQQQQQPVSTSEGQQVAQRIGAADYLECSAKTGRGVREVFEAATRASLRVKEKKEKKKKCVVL

The target in the next data set is T4, peptide GCVLL.
T4 chain: GCVLL

Data set [5] deals with T5, peptide LQARRGKKKSGCLVL (C-terminus of huRhoA).
T5 chain: LQARRGKKKSGCLVL

Chain of human RhoA, P61586 (P61586 whole entry): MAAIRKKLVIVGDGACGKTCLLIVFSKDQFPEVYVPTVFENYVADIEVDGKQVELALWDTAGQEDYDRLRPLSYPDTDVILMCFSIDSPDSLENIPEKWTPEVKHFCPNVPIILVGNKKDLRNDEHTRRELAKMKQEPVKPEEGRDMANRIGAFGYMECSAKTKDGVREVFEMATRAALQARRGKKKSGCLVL
Chain of 1,3-β-glucan synthase (GS) complex, P38631 (P38631 whole entry, looked up, one chain of several): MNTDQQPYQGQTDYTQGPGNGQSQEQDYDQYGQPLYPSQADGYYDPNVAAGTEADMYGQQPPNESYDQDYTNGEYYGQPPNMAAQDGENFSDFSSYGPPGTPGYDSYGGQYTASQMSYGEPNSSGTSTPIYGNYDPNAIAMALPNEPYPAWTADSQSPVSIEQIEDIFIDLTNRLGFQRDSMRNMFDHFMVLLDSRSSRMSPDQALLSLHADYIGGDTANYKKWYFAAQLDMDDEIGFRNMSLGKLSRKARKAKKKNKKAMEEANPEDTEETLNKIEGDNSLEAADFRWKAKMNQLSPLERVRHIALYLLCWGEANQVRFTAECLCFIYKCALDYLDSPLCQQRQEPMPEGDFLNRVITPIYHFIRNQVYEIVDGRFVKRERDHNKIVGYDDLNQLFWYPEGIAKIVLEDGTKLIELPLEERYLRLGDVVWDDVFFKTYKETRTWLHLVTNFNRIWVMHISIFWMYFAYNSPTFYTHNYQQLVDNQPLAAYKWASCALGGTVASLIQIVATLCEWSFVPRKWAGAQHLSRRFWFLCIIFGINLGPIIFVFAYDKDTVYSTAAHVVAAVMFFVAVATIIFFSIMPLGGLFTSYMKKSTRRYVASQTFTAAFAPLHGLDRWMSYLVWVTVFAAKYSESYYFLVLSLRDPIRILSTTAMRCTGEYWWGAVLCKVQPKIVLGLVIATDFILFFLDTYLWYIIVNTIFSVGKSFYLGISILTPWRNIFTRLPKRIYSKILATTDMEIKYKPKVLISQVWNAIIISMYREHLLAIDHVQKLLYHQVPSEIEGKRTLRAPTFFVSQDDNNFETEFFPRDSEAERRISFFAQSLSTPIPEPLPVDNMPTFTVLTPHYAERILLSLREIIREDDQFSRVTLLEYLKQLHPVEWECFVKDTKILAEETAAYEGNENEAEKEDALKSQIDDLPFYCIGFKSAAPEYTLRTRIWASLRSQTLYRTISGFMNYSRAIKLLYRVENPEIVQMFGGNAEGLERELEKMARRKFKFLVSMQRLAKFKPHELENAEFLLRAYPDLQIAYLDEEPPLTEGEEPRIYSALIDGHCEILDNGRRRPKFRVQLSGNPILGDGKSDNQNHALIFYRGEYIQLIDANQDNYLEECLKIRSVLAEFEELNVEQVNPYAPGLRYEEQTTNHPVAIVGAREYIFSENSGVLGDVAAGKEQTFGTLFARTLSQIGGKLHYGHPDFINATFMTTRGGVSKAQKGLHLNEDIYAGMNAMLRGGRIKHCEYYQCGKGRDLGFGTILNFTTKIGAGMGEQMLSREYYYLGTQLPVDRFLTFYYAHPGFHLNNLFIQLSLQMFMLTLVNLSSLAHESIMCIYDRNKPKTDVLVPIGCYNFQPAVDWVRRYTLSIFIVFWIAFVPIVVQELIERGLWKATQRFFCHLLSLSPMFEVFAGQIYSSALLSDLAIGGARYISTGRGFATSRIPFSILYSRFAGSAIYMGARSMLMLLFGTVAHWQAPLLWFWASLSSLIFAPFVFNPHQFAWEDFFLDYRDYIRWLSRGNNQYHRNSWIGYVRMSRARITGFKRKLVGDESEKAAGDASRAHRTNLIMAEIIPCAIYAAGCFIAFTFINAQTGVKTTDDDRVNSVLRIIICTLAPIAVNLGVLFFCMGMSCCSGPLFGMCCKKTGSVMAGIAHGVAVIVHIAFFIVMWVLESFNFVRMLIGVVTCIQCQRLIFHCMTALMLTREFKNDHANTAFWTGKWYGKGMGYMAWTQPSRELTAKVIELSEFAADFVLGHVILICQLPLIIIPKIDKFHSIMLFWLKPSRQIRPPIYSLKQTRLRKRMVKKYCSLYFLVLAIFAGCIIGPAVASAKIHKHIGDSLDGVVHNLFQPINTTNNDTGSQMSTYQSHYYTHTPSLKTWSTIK
Chain of H-RasCVLL, P01112 (P01112 whole entry, looked up): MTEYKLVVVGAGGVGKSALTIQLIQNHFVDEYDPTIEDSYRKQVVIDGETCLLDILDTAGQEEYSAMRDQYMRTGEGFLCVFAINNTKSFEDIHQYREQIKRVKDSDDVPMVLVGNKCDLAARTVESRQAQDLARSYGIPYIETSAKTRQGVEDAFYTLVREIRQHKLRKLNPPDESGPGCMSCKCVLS

B1: Recombinant glutathione-S-transferase (GST)-Rho1, preloaded with GTPγS (protein)
chain: MSQQVGNSIRRKLVIVGDGACGKTCLLIVFSKGQFPEVYVPTVFENYVADVEVDGRRVELALWDTAGQEDYDRLRPLSYPDSNVVLICFSIDLPDSLENVQEKWIAEVLHFCQGVPIILVGCKVDLRNDPQTIEQLRQEGQQPVTSQEGQSVADQIGATGYYECSAKTGYGVREVFEAATRASLMGKSKTNGKAKKNTTEKKKKKCVLL
Take B1: the “GS activity in rho1-3 membrane fractions at 37° C.” value in data set [1] was “GS activity was restored fully by the addition of GTPγS-bound GST-Rho1”.

B2: Recombinant glutathione-S-transferase (GST)-Rho1, preloaded with GDP (protein)
chain: MSQQVGNSIRRKLVIVGDGACGKTCLLIVFSKGQFPEVYVPTVFENYVADVEVDGRRVELALWDTAGQEDYDRLRPLSYPDSNVVLICFSIDLPDSLENVQEKWIAEVLHFCQGVPIILVGCKVDLRNDPQTIEQLRQEGQQPVTSQEGQSVADQIGATGYYECSAKTGYGVREVFEAATRASLMGKSKTNGKAKKNTTEKKKKKCVLL
Turning to B2, the “GS activity in rho1-3 membranes complemented with GST-Rho1” value in data set [1] was “GTPγS could be replaced with GTP, but not GDP”.

B3: Candida GGTase (CaGGTase), geranylgeranyl protein transferase I purified from Candida cells (protein)
chain 1: MTDSKYDYSDITPVDINTEEPQICQILYDEDYKQIMGLLLALMKAEEYSERALHITELGINELASHYTIWIYRFNILKNLPNRNLYDELDWCEEIALDNEKNYQIWNYRQLIIGRIMELNNNDFDPYREFLILEAMLSSDPKNHHVWSYRKWLVDTFDLHNDAKELSFVDKVIDTDLKNNSAWSHRFFLLFSKKHLATDNTIDEELNYVKDKIVKCPQNPSTWNYLLGIHERFDRSITQLEEFSLQFVDLEKDQVTSSFALETLAKIYTQQKKYNEARTVYDLLKSKYDPIRSNFWDYQISKLTSV
chain 2: MNQLLINKHEKFFNRCLIGLPSTAQSEDSNKLAIIYFCLHGLQLIQKFQFTNQELIYYRNFIINQFMIENNQIISFRSTHYFQKTNQKYDCPNLSSTLFALYNLLILKSPYHTIINRKKIMNFLCKCQVKDGINKGGFVPTLYYDEENGDYKQYGEPDLRVCYMALLIRHLMKYDDNNNNNNREDSNETDIDLISLQQFILDRININGGFSSTIMDESHLGFTFCAIASLKLLNYPLEKLKSTKEWLIHRQVDYPENLYPKDGNGDNYEYYRNIDIGGFNGRENKLSDTCYSWWCTGSLYNIDVNFIKLVDLNKAEDYLLNKTQNQLFGGFGRDPDSTPDPMHSYLALASLSLWNHEKFALQEINPILTITKELYQFFKEEIKY
B3: the “prenylation of the peptide” value in data set [2] and in data set [3] was “+” each time. Further, the Michaelis-Menten constant (Km) is 250 µM in data set [4]; “NS*” in the data set with H-RasCVLL, P01112; “NS” with human RhoA, P61586.

B4: S. cerevisiae GGTase (ScGGTase) (protein)
chain 1: MEEYDYSDVKPLPIETDLQDELCRIMYTEDYKRLMGLARALISLNELSPRALQLTAEIIDVAPAFYTIWNYRFNIVRHMMSESEDTVLYLNKELDWLDEVTLNNPKNYQIWSYRQSLLKLHPSPSFKRELPILKLMIDDDSKNYHVWSYRKWCCLFFSDFQHELAYASDLIETDIYNNSAWTHRMFYWVNAKDVISKVELADELQFIMDKIQLVPQNISPWTYLRGFQELFHDRLQWDSKVVDFATTFIGDVLSLPIGSPEDLPEIESSYALEFLAYHWGADPCTRDNAVKAYSLLAIKYDPIRKNLWHHKINNLN
chain 2: MCQATNGPSRVVTKKHRKFFERHLQLLPSSHQGHDVNRMAIIFYSISGLSIFDVNVSAKYGDHLGWMRKHYIKTVLDDTENTVISGFVGSLVMNIPHATTINLPNTLFALLSMIMLRDYEYFETILDKRSLARFVSKCQRPDRGSFVSCLDYKTNCGSSVDSDDLRFCYIAVAILYICGCRSKEDFDEYIDTEKLLGYIMSQQCYNGAFGAHNEPHSGYTSCALSTLALLSSLEKLSDKFKEDTITWLLHRQVSSHGCMKFESELNASYDQSDDGGFQGRENKFADTCYAFWCLNSLHLLTKDWKMLCQTELVTNYLLDRTQKTLTGGFSKNDEEDADLYHSCLGSAALALIEGKFNGELCIPQEIFNDFSKRCCF
On to B4, for which the “prenylation of the peptide” value in data set [2] is listed as “+”; in data set [3], “+”; with peptide GCVLL it was “Human GGTase can prenylate peptides that lack the polylysine region, whereas the fungal GGTases can not”; in data set [5] it was “+”. The Km in data set [4] is 80 µM; with H-RasCVLL, P01112 it was “NS”; in the data set with human RhoA, P61586, less than 100 µM.
